Patent US20080026998 (published 2008)
Where a chain is given by its changes, count along the chain named. Names and notes keep the numbering of the source. Like-named read-outs stand apart in the source and are kept apart here. Each block holds one binder with its values, some of them ahead of it.

Key:
plasmin [1] = target: T1, plasmin (human, UniProt P00747)
T1 chain: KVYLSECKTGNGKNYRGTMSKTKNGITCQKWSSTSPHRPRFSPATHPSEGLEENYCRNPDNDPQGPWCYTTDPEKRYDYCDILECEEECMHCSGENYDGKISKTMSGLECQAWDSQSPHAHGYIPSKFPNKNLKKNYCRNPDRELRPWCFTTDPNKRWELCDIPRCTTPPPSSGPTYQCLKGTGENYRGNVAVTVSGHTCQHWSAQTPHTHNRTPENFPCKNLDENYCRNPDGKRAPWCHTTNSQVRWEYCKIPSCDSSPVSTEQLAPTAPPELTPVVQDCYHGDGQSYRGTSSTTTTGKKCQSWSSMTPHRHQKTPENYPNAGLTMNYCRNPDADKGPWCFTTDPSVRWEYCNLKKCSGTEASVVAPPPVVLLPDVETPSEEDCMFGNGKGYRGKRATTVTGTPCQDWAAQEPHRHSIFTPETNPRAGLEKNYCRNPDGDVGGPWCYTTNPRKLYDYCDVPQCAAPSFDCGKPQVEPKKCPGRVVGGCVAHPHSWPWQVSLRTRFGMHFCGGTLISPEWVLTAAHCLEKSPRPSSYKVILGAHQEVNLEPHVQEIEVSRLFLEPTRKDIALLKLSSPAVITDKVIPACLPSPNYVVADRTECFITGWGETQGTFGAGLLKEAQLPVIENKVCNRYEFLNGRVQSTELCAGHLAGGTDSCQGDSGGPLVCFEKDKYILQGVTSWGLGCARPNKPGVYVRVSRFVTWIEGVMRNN

plasmin [2] = target: T1, plasmin
plasmin [3] = target: T1, plasmin
plasmin [4] = target: T1, plasmin
plasmin [5] = target: T1, plasmin

- Ki (plasmin [1]): 5.3 nM
- Ki (plasmin [2]): 9.7 nM
- Ki (plasmin [3]): 7.5 nM
- Ki (plasmin [4]): 6.4 nM
B1: KD1 wild-type (protein)
chain: DAAQEPTGNNAEICLLPLDYGPCRALLLRYYYDRYTQSCRQFLYGGCEGNANNFYTWEACDDACWRIEKVPKV

- Ki (plasmin [1]): 0.625 nM
- Ki (plasmin [2]): 1.06 nM
- Ki (plasmin [3]): 1.5 nM
- Ki (plasmin [5]): 2.2 nM
- Ki (plasmin [4]): 1.25 nM
B2: KD1 R24K/L26R (protein)
chain: B1 chain with R24K, L26R

- Ki (plasmin [1]): 1.1 nM
- Ki (plasmin [2]): 1.33 nM
- Ki (plasmin [3]): 4.6 nM
- Ki (plasmin [4]): 1.02 nM
B3: KD1 R24K (protein)
chain: B1 chain with R24K
